Test results published in the DeepSol protein solubility set.

assay: soluble on expression in E. coli; label from the status in PepcDB or PDB records

Sequence | soluble on expression in E. coli
ATGGGTAATAATTTAATGCAGACGGACCTTTCCGTCTGGGGTATGTATCARCACGCCGATATTGTCGTTAAGTGCGTGATGATTGGGCTTATTTTGGCCTCCGTAGTCACCTGGGCAATCTTCTTCAGTAAGAGCGTAGAGTTCTTTAATCAGAAGCGTCGCCTTAAGCGCGAGCAGCAACTGCTGGCTGAAGCGCGTTCCTTAAACCAGGCCAACGATATCGCCGCTGATTTTGGTAGCAAAAGCTTAAGCCTGCATTTGCTCAATGAAGCGCAGAATGAGCTGGAACTGTCAGAAGGCAGCGACGATAACGAAGGTATTAAAGAACGTACCAGCTTCCGTCTGGAGCGTCGGGTCGCCGCAGTAGGTCGTCAAATGGGCCGCGGTAACGGCTATCTGGCAACCATCGGCGCGATTTCGCCGTTCGTTGGGCTGTTTGGTACGGTCTGGGGCATCATGAACAGCTTTATTGGTATCGCGCAAACGCAGACCACTAACCTGGCAGTCGTTGCGCCGGGTATCGCAGAAGCTCTGTTAGCAACGGCAATCGGTCTGGTGGCAGCGATTCCGGCGGTCGTTATCTATAACGTATTCGCGCGTCAGATTGGCGGCTTTAAAGCGATGCTGGGTGATGTCGCAGCGCAGGTATTGTTGCTGCAAAGCCGTGACCTGGATCTGGAAGCCAGCGCCGCTGCGCATCCGGTTCGTGTCGCACAAAAATTACGCGCAGGATAA | not soluble
AVCDTPHERLTILYTKILDLLKHFPKHAAYRKYTEQITSEKLELVKLEPDVKKLENLLQGG | soluble
AWKGEVLANNEAGQVTSIIYNPGDVITIVAAGWASYGPTQKWGPQGDREHPDQGLICHDAFCGALVMKIGNSGTIPVNTGLFRWVAPNNVQGAITLIYNDVPGTYGNNSGSFSVNIGKDQS | soluble
AWVDQTPRSVTKETGESLTINCALKNAADDLERTDWYRTTLGSTNEQKISIGGRYVETVNKGSKSFSLRIRDLRVEDSGTYKCGAYFSDAMSNYSYPIPGEKGAGTVLTVKAA | soluble
AWVDQTPRTATKETGESLTINCVLRDASYGLESTGWYRTKLGSTNEQTISIGGRYVETVNKGSKSFSLRIRDLRVEDSGTYKCGAFRFWLPYGYGSLPLSEKGAGTVLTVK | soluble
CDAGRAKDKANEMMQGGNSLFGAMEGGTKEQVVLDMIDLGEHDAKTLLECEYETLGIHVSGNPLDEFKEEIKGFKNLVKSIDIEELEIGS | not soluble
CIIDKVTAVRRLNVLTLNVHKGFTFFNRRFILPELREAVRATGADLVFLQEVHGSHQQHALRHPAWPETPQYEFLADSMWPQFAYGRNAVYPHGDHGNALLSKFPIRRFNNLDVSVQGNEQRGLLHCQLEVPGHDEVHAVCVHLGLREAHRQRQVKLMLDLLASLPPNAPVIIAGDFNDWRLKADAVLSEHLTEAFGTPARSFPARLPLLRLDRIYLRNAVPGAAQVLSKYPWSHLSDHVPLAAEINL | not soluble
CSEPYEGKVAVASVILNRLQNPEFPKSIGDVIKQKYAFSCIRDGKIEVTPNQECYNAVMDALHGKDPTPKAMYFYNPRISTSSWMNNIQKENVKVIGNHVFFKTYKE | not soluble
DAAPAAGSTLDKIAKNGVIVVGHRESSVPFSYYDNQQKVVGYSQDYSNAIVEAVKKKLNKPDLQVKLIPITSQNRIPLLQNGTFDFECGSTTNNVERQKQAAFSDTIFVVGTRLLTKKGGDIKDFADLKGKAVVVTSGTTSEVLLNKLNEEQKMNMRIISAKDHGDSFRTLESGRAVAFMMDDALLAGERAKAKKPDNWDIVGKPQSQEAYGCMLRKDDPQFKKLMDDTIAQVQTSGEAEKWFDKWFKNPIPPKNLNMNFELSDEMKALFKEPNDKALNLEHHHHHH | soluble
DAARRGGAAGGGGPRSPRRSGPLGPHACPPALPEPKVTSTMSSQVVGIEPLYIKAEPASPDSPKGSSETETEPPVTLASGPAPARCLPGHKEEEDGEGAGSGEQGSGKLVLSSLPKRLCLVCGDVASGYHYGVASCEACKAFFKRTIQGSIEYSCPASNECEITKRRRKACQACRFTKCLRVGMLKEGVRLDRVRGGRQKYKRRPEVDPLPFPGPFPAGPLAVAGGPRKTAPVNALVSHLLVVEPEKLYAMPDPASPDGHLPAVATLCDLFDREIVVTISWAKSIPGFSSLSLSDQMSVLQSVWMEVLVLGVAQRSLPLQDELAFAEDLVLDEEGARAAGLGDLGAALLQLVRRLQALRLEREEYVLLKALALANSDSVHIEDAEAVEQLREALHEALLEYEAGRAGPGGGAERRRAGRLPCTLPLLRQTAGKVLAHFYGVKLEGKVPMHKLFLEMLEAMMD | soluble
DAPLNSVEGFIRQVLGWREFLRHVYRREMPSLAEANQLGANEALPDFYWNGDTDMACLSDVVDGVRERGYSHHIERLMILANFGLIYGVEPAQLNRWFHAGYVDAFHWVTTPNVVEMGLYGAGVFATKPYASSANYVDKMSDYCSGCPYYKTKTTGDGACPFNALYWDFLDRNEETLRSNHRMGLMYSHVDNKSDEELGEIRERAAEIREMATKGE | not soluble
DDKLRIGGTALFKRDRFVDNIGIEDSFFLKLMVDEMKQTTHQFQIDEDGEKAYVVVEKIFSSFNREMTGSMEAPHFRCHIHFRGEITDYTGPLTLTKDETMNKIEEGMARQIETKGEELLKRFQSLGIDPVGLGEKYRSHTRDWKPGVWHDSIYEQATVEVTAEVEIVQSGVTE | not soluble
DDYDQSLCSTGFYVVRSNQINPETLLTLFKSLPIQQLLKKACSGTILTGIGKQEFEKIPIPLIRPEVQEEIAQHVQRSFALRKEASELLEKAKLSVEYAIETGGGNSLIYSGLLNTLAKYERLAMWLLLKELGIVDESPNRQRVVTTEKRLSESFFTSGRLDAEYYQPKYDYLDAQFSSIPTKRLGDIVNIHKSIEPGSDAYQENGIPFVRVADLSKFGIETSSICLDSSTYSTAPRPRKNTILLSKDGSVGIAYKMEEDADIITSGAILHLSMKGKELLPDYLTLVLNSPIVRMQAERDAGGSIIQHWKPSEISQVIIPMLPVYIQQKLSDLVSKSFAFRRESKALLERAKAMVEQAIEFSA | not soluble
DIVMTQSPLSLPVTPGEPASISCRSSQSIVHSNGHTYLEWYLQKPGQSPRLLIYQVSTRFSGVPDRFSGSGSGTDFTLKISRVEAEDVGVYYCFQASLVPLTFGQGTKLEIKRTVAAPSVFIFPPSDEQLKSGTASVVCLLNNFYPREAKVQWKVDNALQSGNSQESVTEQDSKDSTYSLSSTLTLSKADYEKHKVYACEVTHQGLSSPVTKSFNRGECAAADYKDDDD | soluble
DKGTALLVNRSLRFGERTAEELMTPRVKIVTLSTTDTVADLIDTASRTGFSRFPVVESDLDDAVGVVHIKHAFAVPAHRRRTARLNSLAQKVPVVPSSLDGDALMERIRSDGMQVAFVVDEYGGTAGMVTMEDLIEEIVGDVR | not soluble
DKMTIEVPVLTFVPVQVSAELENRGCWVKFFDKKNFQGDSLFLSGPATLPRLIGPFGYDWENKVRSVKVGPRANLTIFDNHNYRDEDKFLDAGANVANLSKEMGFFDNFRSMVLNCI | soluble
DKVQNAVMQAMVRGSLNKDLAAQIKDLGKTTEKRAMFIARDQSSKLNAALTQARHEEVGIKKYMWSASLDERVRESHAEKDGQIFEYANPPADTDHPGHDFNCRCVQI | not soluble
DLKYILETKLEEERNHLEELLEKVEEDYEGINYDEVLEALKLFKDNYELPKSKIKRKIRIFLIKENILFLNPQKGTLKPQSYLVWNAIKRML | soluble
DLQNMDATNWLGNSVSEGFIHQFQRRGFKVVDFKTTGSIQVTQQGDFALSRDWQDLAQEQQIQYVLTGTMLRQEGGVLVNARVVGMQSRVVVATAQGFLPADRIGRDLDTLNSIRTQDGVLIRSDPTIRQPYTVILRP | not soluble
DMPVEKIQEAEMAVEPKDGNMVEQPNDPVTNICQAADKQLVTLVEWAKRIPHFSDLPIDDQVILLRAGWNELLIAAFSHRSIDVKDGILLASGLHVHRSSAHQAGVGTIFDRVLTELVAKMRDMKMDKTELGCLRAIVLFNPDAKGLTDPSLVESLREKVYASLEEYCKQQYPEQPGRFAKLLLRLPALRSIGLKCLEHLFFFKLIGDTPIDTFLMEML | soluble
DNARTNPLKDLEFFLHSFRGLLEKAPVVVGITKMDIRSQPGIDVYHKYLAKHNLNVPVFEIDARKEDDVKQLVSAMLFSIDPGLEV | not soluble
